Biological target: T1, Rev1 G193R (1-746) (Saccharomyces cerevisiae (expression …, UniProt P12689 1-746, G193R))
T1 sequence: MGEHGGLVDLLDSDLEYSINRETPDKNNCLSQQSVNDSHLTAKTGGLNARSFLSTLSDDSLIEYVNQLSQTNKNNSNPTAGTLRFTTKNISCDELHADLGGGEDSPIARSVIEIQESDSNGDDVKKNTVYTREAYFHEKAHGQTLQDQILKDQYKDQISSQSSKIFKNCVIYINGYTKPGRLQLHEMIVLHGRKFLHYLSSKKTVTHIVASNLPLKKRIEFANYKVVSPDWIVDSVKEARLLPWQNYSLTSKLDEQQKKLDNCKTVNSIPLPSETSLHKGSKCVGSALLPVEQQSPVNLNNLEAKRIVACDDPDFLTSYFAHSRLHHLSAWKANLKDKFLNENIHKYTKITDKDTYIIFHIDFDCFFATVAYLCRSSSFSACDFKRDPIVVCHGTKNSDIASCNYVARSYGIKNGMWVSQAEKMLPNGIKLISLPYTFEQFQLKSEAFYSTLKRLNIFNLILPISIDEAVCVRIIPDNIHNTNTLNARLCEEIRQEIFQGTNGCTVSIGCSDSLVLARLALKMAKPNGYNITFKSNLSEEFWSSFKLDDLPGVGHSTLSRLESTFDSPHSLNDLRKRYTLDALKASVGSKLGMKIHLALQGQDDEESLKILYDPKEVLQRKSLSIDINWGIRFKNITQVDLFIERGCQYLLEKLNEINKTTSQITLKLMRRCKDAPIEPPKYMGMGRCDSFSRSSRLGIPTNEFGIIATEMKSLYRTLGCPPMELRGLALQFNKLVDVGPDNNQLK
Assay: pre-steady-state burst amplitude titration

B1: 24/45-mer primer-template (dsDNA)
DNA 1: GCCTCGCAGCCGTCCAACCAACTC
DNA 2: GGACGGCATTGGATCGACCTGGAGTTGGTTGGACGGCTGCGAGGC
Kd: 16 ± 5 nM

Source: publication PMC3580236
